Reference: article PMC9104846

Tests used:
[1] = target: Cetuximab (anti-EGFR), full-length IgG; experiment: cross-linking
[2] = target: Trastuzumab (anti-Her2/neu), full-length IgG; experiment: cross-linking

Row | Substance | percent of IgG labeled with a single SpyCatcher/SpyTag [1] [%] | percent of IgG labeled with a single SpyCatcher/SpyTag [2] [%] | maximum percentage of IgG conjugated to a single pAbBD-SC/ST [2] [%] | maximum percentage of IgG conjugated to a single pAbBD-SC/ST [1] [%]
1 | pAbBD-(GGS)7-SC-(GGS)4-pAbBD (designed binder) | > 70 | > 70 |  | 
2 | photoreactive antibody-binding domain fused to SpyCatcher (designed binder) |  |  | 40 | 
3 | pAbBD-(GGS)7-SC-(GGS)7-pAbBD (designed binder) | > 70 | > 70 |  | 
4 | pAbBD-(GGS)7-ST-(GGS)7-pAbBD (designed binder) | > 70 | > 70 |  | 
5 | pAbBD-(GGS)7-ST-(GGS)4-pAbBD (designed binder) | > 70 | > 70 |  | 
6 | photoreactive antibody-binding domain fused to SpyTag (designed binder) |  |  |  | 40
